Data taken from US20180142030A1 (Bristol-Myers Squibb, published 2018).

biological target: T1, recombinant human CD40 monomer (human, UniProt P25942 21-193); test: BLI (Octet RED); antibody supernatant captured on protein A sensors, huCD40-monomer in solution
T1 construct: also called huCD40-monomer; soluble human CD40
From the text: The closest matching human germline region sequence was selected for each mouse variable domain, and these human framework regions were used to replace murine frameworks in the “CDR graft” versions of the antibodies. Additional amino acid substitutions, such as framework back-mutations, were then made as necessary to restore the binding affinity of the humanized antibody. Further amino acid substitutions were made to eliminate sequence liabilities. The sequence relationships between the various forms of the antibodies of the present invention are provided at Table 6. The binding of various agonistic anti-huCD40 antibodies to soluble human CD40 was determined by Biolayer Interferometry (BLI) analysis using a Fortebio Octet RED (Rapid system—Extended Detection) label-free interaction analysis instrument. All studies were performed in 10 mM NaₓPO₄, 130 mM NaCl, 0.05% Surfactant P20 (pH 7.1) at 25° C. Briefly, anti-huCD40 antibody supernatants (diluted to 10 μg/ml or captured undiluted if supernatant concentration was less than 10 μg/ml) were captured on protein A coated biosensors (Pall Fortebio #18-5010) using a loading time of 90 s and shake speed of 1000 rpm. Supernatants were first screened for binding to 1 μM recombinant human CD40 monomer (huCD40-monomer) using 180 s association and dissociation times, at 1000 rpm, with two 15 s conditioning steps using 10 mM glycine pH 1.5 in between binding cycles.

T1 sequence (P25942 21-193 limits assumed): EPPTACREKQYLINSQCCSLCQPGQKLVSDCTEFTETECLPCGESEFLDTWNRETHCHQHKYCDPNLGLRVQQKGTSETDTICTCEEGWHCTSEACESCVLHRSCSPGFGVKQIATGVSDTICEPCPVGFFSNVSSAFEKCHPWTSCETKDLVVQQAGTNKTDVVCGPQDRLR

Binder | Kd [nM]
5F11-17 (antibody, human IgG1, kappa, Humanized; IgG1f) heavy: not shown light: DIVMTQSPDSLAVSLGERATINCRASKNVDSYGNSFMHWYQQKPGQPPKLLIYRASNLESGVPDRFSGSGSGTDFTLTISSLQAEDVAVYYCQQSNEDPLTFGQGTKLEIKRTVAAPSVFIFPPSDEQLKSGTASVVCLLNNFYPREAKVQWKVDNALQSGNSQESVTEQDSKDSTYSLSSTLTLSKADYEKHKVYACEVTHQGLSSPVTKSFNRGEC | 8.4
5G7-25 (antibody, human IgG1, kappa, V domains shown, Humanized; IgG1f) VH: QVQLVQSGAEVKKPGASVKVSCKASGYTFTDYNMDWVRQAPGQGLEWMGDINPKNAGTIYNLKFKGRVTLTVDTSTSTAYMELRSLRSDDTAVYYCVRRMDYWGQGTTVTVSS VL: DIQMTQSPSSLSASVGDRVTITCRASQDISNYLNWYQQKPGKVPKLLIYYISRLHSGVPSRFSGSGSGTDFTLTISSLQPEDVATYYCQQGNTLPYTFGGGTKVEIKR | 69
5G7-28 (antibody, human IgG1, kappa, name in Kabat numbering, V domains shown) VH: QVQLVQSGAEVKKPGASVKVSCKASGYTFTDYNMDWVRQAPGQGLEWMGDINPKNAGTIYNLKFKGRVTLTVDTSTSTAYMELRSLRSDDTAVYYCVRRLDYWGQGTTVTVSS VL: DIQMTQSPSSLSASVGDRVTITCRASQDISNYLNWYQQKPGKVPKLLIYYISRLHSGVPSRFSGSGSGTDFTLTISSLQPEDVATYYCQQGNTLPYTFGGGTKVEIKR | 230
12D6-03 (antibody, human IgG1, kappa, V domains shown, Humanized) VH: QVQLVQSGAEVKKPGASVKVSCKASGYTFTGYNMNWVRQAPGQGLEWMGNIDPYYGNTNYNQKFKGRVTMTTDTSTSTAYMELRSLRSDDTAVYYCARLGLQLYAMDYWGQGTTVTVSS VL: DIVMTQTPLSLPVTPGEPASISCRSSQSLVHSNGNTYLHWYLQKPGQSPQLLIYKLTNRFFGVPDRFSGSGSGTDFTLKISRVEAEDVGVYYCSQSIHVPWTFGGGTKVEIKR | 4.8
19G3-11 (antibody, human IgG1, kappa, V domains shown, Humanized; IgG1f) VH: EVQLVESGGGLVKPGGSLRLSCAASGFTFSSYAMSWVRQAPGKGLEWVSEISGGGSYTYYPDTVTGRFTISRDNAKNSLYLQMNSLRAEDTAVYYCASRAYWGQGTLVTVSS VL: DIVMTQTPLSLPVTPGEPASISCRSSQSIVHSNGNTYFEWYLQKPGQSPQLLIYKVSNRFSGVPDRFSGSGSGTDFTLKISRVEAEDVGVYYCFQGSHVPYTFGGGTKVEIKR | 850
12D6-22 (antibody, human IgG1, kappa, V domains shown, Humanized; IgG1f) VH: QVQLVQSGAEVKKPGASVKVSCKASGYTFTGYNMNWVRQAPGQGLEWMGNIDPYYGNTNYNQKFKGRVTMTTDTSTSTAYMELRSLRSDDTAVYYCARLGLQLYAMDYWGQGTTVTVSS VL: DIVMTQTPLSLPVTPGEPASISCRSSQSLVHSNANTYLHWYLQKPGQSPQLLIYKLTNRFFGVPDRFSGSGSGTDFTLKISRVEAEDVGVYYCSQSIHVPWTFGGGTKVEIKR | 3.6
19G3 (parental) (antibody, V domains shown, Mouse variable domains; also called 1802.3582.19G3.F10.E1; mAb 19G3) VH: EVQLVESGGGLVKPGGSLKLSCAASGFTFSSYAMSWVRQSPEKRLEWVAEISGGGSYTYYPDTVTGRFTISRDNAKNTLYLEMSSLRSEDTAMYYCASRAYWGQGTLVTVSA VL: DVLMTQTPLSLPVSLGDQASISCRSSQSIVHSNGNTYFEWYLQKPGQSPKLLIYKVSNRFSGVPDRFSGSGSGTDFTLKISRVEAEDLGVYYCFQGSHVPYTFGGGTKLEIK | 870
12D6 (parental) (antibody, V domains shown, Mouse variable domains; also called 1802.3716.12D6.B1.E3; mAb 12D6) VH: EVQLQQSGPELEKPGASVKMSCKASGYSFTGYNMNWVKQSNGKSLEWIGNIDPYYGNTNYNQKFKGKATLTVDKSSSTAYLQLKSLTSEDSAVYYCARLGLQLYAMDYWGQGTSVTVSS VL: DVVMTQTPLSLPVSLGDQASISCRSSQSLVHSNGNTYLHWYLQKPGQSPNLLIYKLTNRFFGVPDRFSGSGSGTDFTLKISRVEAEDLGVYFCSQSIHVPWTFGGGTKLEIK | 3.6

Further binders by falling Kd, results first:

Kd [nM] | Binder
1300 | 19G3-23 (antibody, human IgG1, kappa, name in Kabat numbering, V domains shown, Heavy chain inferred from the identical VH description (VH3-21 S94R) of 19G3-11; Light chain is the VKII O11 CDR graft of 19G3-11 with G29A) VH: EVQLVESGGGLVKPGGSLRLSCAASGFTFSSYAMSWVRQAPGKGLEWVSEISGGGSYTYYPDTVTGRFTISRDNAKNSLYLQMNSLRAEDTAVYYCASRAYWGQGTLVTVSS VL: DIVMTQTPLSLPVTPGEPASISCRSSQSIVHSNANTYFEWYLQKPGQSPQLLIYKVSNRFSGVPDRFSGSGSGTDFTLKISRVEAEDVGVYYCFQGSHVPYTFGGGTKVEIKR
99 | 19G3-22 (antibody, human IgG1, kappa, V domains shown, Humanized; IgG1f) VH: EVQLVESGGGLVKPGGSLRLSCAASGFTFSSYAMSWVRQAPGKGLEWVSEISGGGSYTYYPDTVTGRFTISRDNAKNSLYLQMNSLRAEDTAVYYCASRAYWGQGTLVTVSS VL: DIVMTQTPLSLPVTPGEPASISCRSSQSIVHSQGNTYFEWYLQKPGQSPQLLIYKVSNRFSGVPDRFSGSGSGTDFTLKISRVEAEDVGVYYCFQGSHVPYTFGGGTKVEIKR
89 | 5G7 (parental) (antibody, V domains shown, Mouse variable domains; also called 1802.3583.5G7.F12.G3; mAb 5G7) VH: EVLLQQSGPELVKPGASVKIPCKASGYKFTDYNMDWVKQSHGKSLEWIGDINPKNGGTIYNLKFKGKATLTVDMSSSTAYMELRSLTSEDTAVYYCVRRMDYWGQGTSVTVSS VL: DIQMTQTTSSLSASLGDRVTISCRASQDISNYLNWYQQKPDGTVKLLIYYISRLHSGVPSRFRGSGSGTDFSLTISNLEQEDIATYFCQQGNTLPYTFGGGTNLEIK
50 | 5G7-22 (antibody, human IgG1, kappa, V domains shown, Humanized; IgG1f) VH: QVQLVQSGAEVKKPGASVKVSCKASGYTFTDYNMDWVRQAPGQGLEWMGDINPKNGGTIYNLKFKGRVTLTTDTSTSTAYMELRSLRSDDTAVYYCVRRMDYWGQGTTVTVSS VL: DIQMTQSPSSLSASVGDRVTITCRASQDISNYLNWYQQKPGKVPKLLIYYISRLHSGVPSRFSGSGSGTDFTLTISSLQPEDVATYYCQQGNTLPYTFGGGTKVEIKR
12.3 | 5F11-45 (antibody, human IgG1, kappa, Humanized; IgG1f) heavy: not shown light: DIVLTQSPDSLAVSLGERATINCRASKNVDSYGNSFMHWYQQKPGQPPKLLIYRASNLESGVPDRFSGSGSGTDFTLTISSLQAEDVAVYYCQQSNEDPLTFGQGTKLEIKRTVAAPSVFIFPPSDEQLKSGTASVVCLLNNFYPREAKVQWKVDNALQSGNSQESVTEQDSKDSTYSLSSTLTLSKADYEKHKVYACEVTHQGLSSPVTKSFNRGEC
5.6 | 12D6-24 (antibody, human IgG1, kappa, Humanized; IgG1f; also called 12D6-24 IgG1f; mAb 12D6-24 human IgG1f (control)) heavy: not shown light: DIVMTQTPLSLPVTPGEPASISCRSSQSLVHSNANTYLHWYLQKPGQSPQLLIYKLTNRFFGVPDRFSGSGSGTDFTLKISRVEAEDVGVYYCSQSIHVPWTFGGGTKVEIKRTVAAPSVFIFPPSDEQLKSGTASVVCLLNNFYPREAKVQWKVDNALQSGNSQESVTEQDSKDSTYSLSSTLTLSKADYEKHKVYACEVTHQGLSSPVTKSFNRGEC
4.9 | 5F11-23 (antibody, human IgG1, kappa, Humanized; IgG1f) heavy: not shown light: DIVLTQSPDSLAVSLGERATISCRASKNVDSYGNSFMHWYQQKPGQPPKLLIYRASNLESGVPDRFSGSGSGTDFTLTISSLQAEDVAVYYCQQSNEDPLTFGQGTKLEIKRTVAAPSVFIFPPSDEQLKSGTASVVCLLNNFYPREAKVQWKVDNALQSGNSQESVTEQDSKDSTYSLSSTLTLSKADYEKHKVYACEVTHQGLSSPVTKSFNRGEC
4.3 | 12D6-23 (antibody, human IgG1, kappa, V domains shown, Humanized; IgG1f) VH: QVQLVQSGAEVKKPGASVKVSCKASGYTFTGYNMNWVRQAPGQGLEWMGNIDPYYGNTNYNQKFKGRVTMTTDTSTSTAYMELRSLRSDDTAVYYCARLGLQLYALDYWGQGTTVTVSS VL: DIVMTQTPLSLPVTPGEPASISCRSSQSLVHSNGNTYLHWYLQKPGQSPQLLIYKLTNRFFGVPDRFSGSGSGTDFTLKISRVEAEDVGVYYCSQSIHVPWTFGGGTKVEIKR
